From publication PMC4734665

Target: WRKY6-His (UniProt Q9C519)
Assay: EMSA
Conditions: EMSA: 20 uL, 0.5 ug protein, 1 uL of 50 ug/mL biotin probe, 2 uL 10x buffer (1x = 10 mM Tris, 50 mM KCl, 1 mM DTT, pH 7.5), 1 uL 1% NP-40, 0.5 uL 1 mg/mL …

Chain of WRKY6-His (Q9C519 whole entry): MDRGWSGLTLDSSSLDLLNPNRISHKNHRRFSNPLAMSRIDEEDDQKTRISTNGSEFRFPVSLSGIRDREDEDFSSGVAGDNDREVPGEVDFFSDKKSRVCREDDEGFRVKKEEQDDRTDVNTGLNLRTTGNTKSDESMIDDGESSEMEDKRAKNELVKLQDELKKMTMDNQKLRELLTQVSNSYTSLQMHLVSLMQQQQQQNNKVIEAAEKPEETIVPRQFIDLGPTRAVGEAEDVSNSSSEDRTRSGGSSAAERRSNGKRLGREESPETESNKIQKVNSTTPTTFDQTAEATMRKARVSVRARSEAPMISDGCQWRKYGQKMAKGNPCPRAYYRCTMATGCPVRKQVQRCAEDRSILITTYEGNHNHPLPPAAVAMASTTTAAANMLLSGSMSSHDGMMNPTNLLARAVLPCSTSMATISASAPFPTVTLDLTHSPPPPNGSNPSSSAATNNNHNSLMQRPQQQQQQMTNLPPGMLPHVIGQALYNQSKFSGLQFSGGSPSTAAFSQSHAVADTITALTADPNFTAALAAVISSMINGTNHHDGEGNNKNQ

| Sequence | binding |
| --- | --- |
| GATAAGATCGTAAGCTATCCACATCACTTGTTAATTGTCCTCAAACCATATTATATAATGCAAACAATTTATGGCGTTAAATCCTTACGTATTTATTCTCTATAAGAGTAAAACACACACACTGAAGGCAACTGATTTAATTGGATTTCTATACGTCAGTAGAAATACTTGTTATGATGTCGGTCGCTCGTTGGCTAAGTATTTCTTATAAATATATAAGACATATTTAAAATCTTTTTACATTACATACACCCACTTATGAGAAAC (double strand) [RAV1 promoter P2 mutant] | no binding |
| GATAAGATCGTAAGCTATCCACATCACTTGTTAATTGTCCTCAAACCATATTATATAATGCAAACAATTTATGGCGTTAAATCCTTACGTATTTATTCTCTATAAGAGTAAAACACACACACTGAAGGCAACTGATTTAATTGGATTTCTATTGACCAGTAGAAATACTTGTTATGATGTCGGTCGCTCGTTGGCTAAGTATTTCTTATAAATATATAAGACATATTTAAAATCTTTTTACATTACATACACCCACTTATGAGAAAC (double strand) [RAV1 promoter P2] | binds |
| GGAAAATTCCTATTTTCCCGATTACATTTTAACACATCAAAATAGGTACTGTGTTTTATAAATCTGAACAAACAATTAGTAATGTTCATACTTTAACATTTAAAAAATTCAAATTATCTACCTCAACTCTTACTTTTGTACATAATTATGAGTCAACGTTAGTTATGGTAATTAACAGTAACGGTTGTTGAATCAGCTAACACTTGTACGTCGAGATGGCATGTTCTTCAAACCAAAT (double strand) [ABI3 promoter fragment] | binds |
